From paper PMC5058748, “ZNF224, Krüppel like zinc finger protein, induces cell growth and apoptosis-resistance by down-regulation of p21 and p53 via miR-663a” come the findings set out here.

Substitutions are numbered along the chain they refer to.

For the data set, the target named is FLAG-ZNF224 (UniProt Q9NZL3 1-707). Briefly: SPR; protein immobilized, oligo as analyte; SPR: 1x PBS, Reichert SR7500DC, CMDH chip, oligo 0-10 uM; pH and temperature not stated; ELISA buffer not in material. Particulars: protein: recombinant; tags: 3xFLAG; label: 5'-biotin (ELISA oligos); hairpin.
Sequence of FLAG-ZNF224 (Q9NZL3 whole entry): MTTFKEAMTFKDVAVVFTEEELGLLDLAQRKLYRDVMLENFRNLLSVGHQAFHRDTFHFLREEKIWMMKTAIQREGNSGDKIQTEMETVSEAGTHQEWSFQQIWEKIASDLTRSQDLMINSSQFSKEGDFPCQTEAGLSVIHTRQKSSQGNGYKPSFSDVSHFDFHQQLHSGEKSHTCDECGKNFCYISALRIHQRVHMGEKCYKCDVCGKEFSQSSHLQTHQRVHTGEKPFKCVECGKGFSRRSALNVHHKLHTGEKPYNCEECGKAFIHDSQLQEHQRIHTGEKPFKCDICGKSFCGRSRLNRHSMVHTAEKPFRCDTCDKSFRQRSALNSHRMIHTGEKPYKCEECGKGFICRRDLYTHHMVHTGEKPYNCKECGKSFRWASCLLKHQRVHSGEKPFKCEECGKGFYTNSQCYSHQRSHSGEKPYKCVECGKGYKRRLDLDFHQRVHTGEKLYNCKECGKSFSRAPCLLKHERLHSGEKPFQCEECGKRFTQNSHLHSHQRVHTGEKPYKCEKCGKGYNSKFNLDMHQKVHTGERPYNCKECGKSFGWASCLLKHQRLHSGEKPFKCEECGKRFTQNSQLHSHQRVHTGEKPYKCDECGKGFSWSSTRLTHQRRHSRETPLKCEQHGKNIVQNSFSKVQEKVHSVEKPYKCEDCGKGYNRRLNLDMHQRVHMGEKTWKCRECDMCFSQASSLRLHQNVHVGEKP

B1: CAGCTTC hairpin oligo (dsDNA)
DNA 1: CCAAGAAGCTGAAAGGGAAAAACCCTTTCAGCTTCTTGG
DNA 2: CCAAGAAGCTGAAAGGGTTTTTCCCTTTCAGCTTCTTGG
For B1, the Kd – broadly, the free concentration of one partner at which half of the binding sites on the other are occupied at equilibrium, for simple one-to-one binding – came to 1250 ± 60 nM.

B2: CAGCGTC hairpin oligo (dsDNA)
DNA 1: B1 DNA 1 with A7C, T33G
DNA 2: B1 DNA 2 with A7C, T33G
For the molecule B2, the equilibrium dissociation constant (Kd) came out at 2000 ± 100 nM.

B3: GCAGCAA hairpin oligo (dsDNA)
DNA 1: CCAAGCAGCAAAAAGGGAAAAACCCTTTTTGCTGCTTGG
DNA 2: CCAAGCAGCAAAAAGGGTTTTTCCCTTTTTGCTGCTTGG
With B3, the dissociation constant (Kd) stood at 420 ± 30 nM.
